Assay results as given in EP4722231A1 (Shanxi Jinbo Bio-Pharmaceutical Co., Ltd., dated 2025).

Experiments:
Assay in all cases: cell-based or functional assay
[1] = target: SARS-CoV-2 Omicron BA.2 S protein (SARS-CoV-2 (BA.2 variant))
[2] = target: SARS-CoV-2 BA.2.75 S protein (SARS-CoV-2 (BA.2.75 variant))
[3] = target: SARS-CoV-2 BA.2.86 S protein (SARS-CoV-2 (BA.2.86 variant))
[4] = target: SARS-CoV-2 XBB.1.5 S protein (SARS-CoV-2 (XBB.1.5 variant))
[5] = target: SARS-CoV-2 EG.5 S protein (SARS-CoV-2 (EG.5 variant))

Binder | Inhibitory activity, IC50 (nM), pseudovirus infection of Caco2 cells (luciferase) [1] [nM] | Inhibitory activity, IC50 (nM), pseudovirus infection of Caco2 cells (luciferase) [2] [nM] | Inhibitory activity, IC50 (nM), pseudovirus infection of Caco2 cells (luciferase) [3] [nM] | Inhibitory activity, IC50 (nM), pseudovirus infection of Caco2 cells (luciferase) [4] [nM] | Inhibitory activity, IC50 (nM), pseudovirus infection of Caco2 cells (luciferase) [5] [nM]
SLDQINVTFLDLEYEMKKLEEAIKKLEESYIDLKEL [prokaryote-expressed polypeptide reEK1 (recombinant polypeptide HCoV-EK1, TEKB)] | 354 | 420 | 298 | 137 | 331
Ac-SLDQINVTFLDLEYEMKKLEEAIKKLEESYIDLKEL-NH2 [chemically synthesized polypeptide EK1] | 228 | 438 | 392 | 291 | 401
